In a protein production outcome set (Wang et al. 2014):

Assay: label from the status in PepcDB records

Sequence | protein production
MKHLPKHLRPRWRYLAVGIETWPNASFGRRAFQREVWYAAQNLLGDTGSAETDMTVLQFHDYDGTAEAIVRTRRGQTNPARAALTCLDSVDDDDVRVRVRGISGTVRACEEKYIRGPPEFTEQRHVVFENADRSATVRPPRYDVETASDGAFVGATALDFR | failed
MYAPERQQEILRLARDGGRVDVVSLAEEFQVTAETIRRDLKALDRAGLLRRVHGGAIPAGRLDFEPDLAERESTAADEKDRIARAALAELPAEGTLILDAGSTVARMAAAIPPDASLTVVTHSLPIAARLADHPGIQLHIVGGRVRHRTRAAVDAWALRAYGEIRADVAVVAANGFSVEHGLTTPDLAEAAVKRAALTAARRVVLLADSSKYAQEHFARFGALGDVDLLITDQGLTPEDAGDIERAGTEVVRA | failed
MFEYRCSSIDWKPSPVVALATSADGSQVAAAREDGSLELWLVSPGASSWHCQLIIHGDPKSRISHLAWFGTGSKGSSSARLFSSSIDGSISEWDLFDLKQKVVLDSIGFSIWQIALAPISIEAESKEAKLIQNGYLSEKSDDEEESGVEDDSELDELDEKVEALDRHLAAACDDGCVRIYYISESDKLTYYRSLPRVTGRALSVTWSADAQRIFSGSSDGLIRCWDANLCHEVYRITVGLGGLGNGSELCIWSLLSLRYGVLVSGDSTGSVQFWDSQHGTLLQAHSNHKGDVNALAASPSHNRVFSAGADGQVILYKLSGGTSRSQDFKPSSAQKWDYIGCVRAHTHDIRALTVAVPISWEGSIPDRNAKVTSPKQRRKEPAGFSYHKWAHLGVPMLISAGDDAKLYAYSVQEFTKFPPHDICPAPQRVPMQMVHNTVFNQTSLLLVQDSCSLDILRIHISNDSSGRVSTKPLVRVKSKDARKIICSAISNTGSLFAYSDQVRPSLFELKKNKIGKNPWSANRKRLPNLPFAHSMVFSCDCSRLIIAGHDRRIYIVDVGSMELLHSFTPRQEGQEGESPPHEPPITKLYTSSNDDWLAAINCFGDIYVFNLETQRQHWFISRLDGASVAAAGFHPRDNNVIVISTSSNQVFALDVEARELSKWSLLQTFCLPKSYQNFPGEVVGLSFSPSPCSSSVIIYSSRAKCLIEFGKPAEQDEDTDTPCNLSEKLEGKLASISMKLGNGAQKRRLEEYQKESKSNKRKKFEMVTSKHPVLYLRHLSKSAILVIEKPWMEVIKNLDTQPVHRHIFGT | failed
MDKPVLKDSMRLFEQLGRVKSRSMFGGFGIFVDETMFALVVNDTLHIRADDATIEKYKQQGYEPYVYKKRGFPVVTKYYALPEDCWSHPDSILNEVRAALEVAKA | failed
MEKAPLLLETVEQAVRILQESPFVAIWNYKVLSVQAGAVALALPAQPQFYRPGGIIQGGCLMTLADTAFWLAAMTELGIDAPIVTLEMKTHFLRAAQADVYCRAEVMKSGRRVTYGTATITDAAGQTLSHHTLTYLAALEHHHHHH | failed
MSNELLMSSAEYPAHQENKRFRGASSQNITVILPACNNEVSIGSLILLTRLYADNVIVVDDGSTDRTVEISRKAGAHVIVNEACKGKVGSLRTGFTAAADLGADIIVTMDPDGQHNPAEIPRIVAPIIDGTAEMVNGSRYLNYPGKNSSVYSRTGQTMQDISANMNFNLKITDTQSGFRAYAASTKSIFRFSGKKTAIENEMLADAGRSGIRIAEVEIGACTSVGASIRDPVKYTLGALRTMAEDIEANKPLYFYSVPGFALATCGFFMGFKFMADYFFGIASLNFGHTFLMVFLALAGAYMTLRGIIAHSMAGAARQTDST | failed
MENQTPSQALISKGWKYFIIVGVIVALAGLGATSLPVMAGVTISTIIGTLLLITGLVQVYHTFRIHSWKEKLWYVLSALFYIVGALFILFKPLEGLMTITTIMIVIMIFNGLTRMIFGFTNRSLPGCGMVILSGLLSVVIGGYFFSLFDNPEFSLSLLGTFVGVSLIFEGMSFLFIGLRLRNASKA | failed
MPELSVILAGFGDALAPINLLFILFGVALGQFVGAVPGIGPVMATAIAIPFTFGMDPLTGIAFLVGVNKGGLVGGAIPAVLLNTPGTPDAAATALDGYPLAKQGKPLKATKMALFSSITGDTFSDIVLITVSAPMAILALRMGPVEVLGLMLLAFAVIAGLMGQSLVKGVVAIALGLMAAMVGTDPEHGSPRLIFGNYELYDGLPLASVAIGMLAISELLKRLSETRGTVRPAITLPRNQPRADRSVSWAEYWGCRFTMLRGAVIGTILGALPGIGSTAAAFMSYASARQASKEPESFGKGSLHGIAASESANSSVMGANMIPMLTLGIPGSVSAALIISAFMIHGIQPGPFLFSQQGQLVYGLFGAMIIANLINLWVGQLGLRFWVRVVSAPEPFIFASALLMCFVGVALASGGLFGIGVMLVFALLAYVMSAFGISVVVFIIAFFLGPRLEISLSQTLALLNGQPQKLLDYPFALVLMALALVTAVALARRRDTESETR | failed
MSQQVIIFDTTLRDGEQALQASLSVKEKLQIALALERMGVDVMEVGFPVSSPGDFESVQTIARQVKNSRVCALARCVEKDIDVAAESLKVAEAFRIHTFIATSPMHIATKLRSTLDEVIERAIYMVKRARNYTDDVEFSCEDAGRTPIADLARVVEAAINAGATTINIPDTVGYTMPFEFAGIISGLYERVPNIDKAIISVHTHDDLGLAVGNSLAAVHAGARQVEGAMNGIGERAGNCSLEEVIMAIKVRKDILNVHTAINHQEIWRTSQLVSQICNMPIPANKAIVGSGAFAHSSGIHQDGVLKNRENYEIMTPESIGLNQIQLNLTSRSGRAAVKHRMDEMGYKESEYNLDNLYDAFLKLADKKGQVFDYDLEALAFIGKQQEEPEHFRLDYFSVQSGSNDIATAAVKLACGEEVKAEAANGNGPVDAVYQAINRITDYNVELVKYSLTAKGHGKDALGQVDIVANYNGRRFHGVGLATDIVESSAKAMVHVLNNIWRATEVEKELQRKAQHNENNKETV | not failed
MIPYVNEYDTPNCNTLAETAKKSIRTPESLGLDRCIQCGACTASCPAARFTDYSPRQIVKKVLENDRSVLESDMIWSCFYCYSCNMRCPRNNSPVTIVQVLRQMAINEGIGIGKLAYFLEIGECLAENGASKVPGAGVKNMERDLGERWIGIKRNLEPIRSELGLSPRDVRDTHGEVQAILESTGYFEREKWIKAGIQEKKLHGFLKADCSDEEKKNGDFCFESDREYTGQEAITV | failed
MTENIPKSVAAMIRQPRKISPFWLLPIVAFIIGALLFFQILKEQGETIKIRFNAGDGIVAGKTIVRYQGLQIGQVKKVYFVDDLKKVEVQAQINSEAKSVLREGTTFWLVKPSASIAGVSGLDALVSGNYITLAPGNGAITNHFVAQDEQPAATVTDGDLLVHLIASDLGSITIGASVYFRKVPVGNIANYRFTEDKQKVEIDVVINKKYAHLVKQNSRFWNISGLNANISFSGLAVNVDSLASVIQGAVSFDSPEDSTLAEQASRFDLYADLKSAQRGVDVNITVPAMTSLKVNETPVFYQNTQVGVLSFIEAMPIDNKEIERVEENAMLRGRLLIDPNYTHLFREQSTILLKEPKFNLNAEQLTNIGQLLRGVYFEVKAGNGLAKRTFTVEKESDYLLSRPDMLALTFFAPKAYGVEEGQGIYYNDVKIGELLKRTLSVDGVTLQGIIFPAYRYLVGENSKFMAIAHLDVAVGLDGLRVKAGSPSHWLQGGIRLLEGKVQGVAKKQYPLYKDIDNAQAGILSDIKQPTLTLSASELEGIDKGAVVLYRNYQIGEVLNVKPQSQKFDVEVYIEPAYRQLIGNKSRFWVESAIEAELSAKGLSIQSAPLMRTLRGAISIDNGGDKMDRTLYANRIKATANKTRISLIAKDASKLFKGMAIKYMGLTIGQIETLALQNAKKQIKLTAYIEAPYYSIIAKEGSCFTAISPEVTPSGVKNIDAVLQNYIDVEAGNGGLATEFNLIDTDTNKTTYANNFPIIVETSDARGIEVNAPVLYRGLQVGIVQRLQLSELADRIQIHLAIEKQYQHLIRNNTQFWAASGYTMDISLQGVSLNSGTMAQLLKGGIEFLTPSTRVVEPQAKPNRRFLLQRKIPAKALSWDQAIAE | failed
MISMKEEIKKVIEETGLPIITDEKSGAAQWVDLRELRLSYIISVENIKPFYEGLKEGKLLGTKCKKCGRLFFPPQKDCPSCFDSDIEWVELKNEGTLETMTVVFVRPPSFSAYDPYPVAIAKLDDGPRILAWYKGDPQQAKPGMRVKIQVGKRKEGYLMYEIAPALEHHHHHH | failed
MKKQELIHLHGLLAQVQNHYEAESGTEVDHDEYEELGVKPTSIHKSKTDHKAAVFAIADGIASEMADETKEPVSAAADLEHHHHHH | not failed
LVVSIRVQGDKRLSSLRRCCALTRYDAHKMSHDAFTVIKNCNTSGIQTEWSPPLTMLFLCATKFSASAP | failed
MTTPTPTPTPTSQSLAAPFAQGVEGVYFDGRSSRDRAATLRVLGSGDLSSGAPLAVLRVAPTDGEPGSEQQWPLRQVQFDPPLAGVRRVVKLPDGGRFETNDDRAITALEAAVGRNRGLRGVRRLESDWGLTLGAVVTLGLFVWGFLTYGLPAMARSAAAATPRSVLTSFDTSAIEVLDNGTFMGPTHLSAARQAQLQREFKDVAQWAGGGYPYRLLLRDGTPQANGDKDSPAPSGSIGTNAFALPGGTVVMTEQLVKLAHSDRELMGVLAHETGHVTHRHSLSSIYQGLGLTLLTTAVTGDLIGASTFAAAVPTWLLKNGYSRQSETQSDEVAGRFLMERYGTTKPLRDVLARLETEDENADENSVKRDDPGAFLQTHPGTAERIRHLREIEQNWPQRRGK | failed
ANTSGKDGTTVVIGESKSDHVIHLYEDPRCPGCAAMEQSIGETVNKGMEDGDYKLSFTVGTFLDGNLGGEGSKNALSALGAALNVSPEAFVDYKTALYSTKYHPEESTDEFAKDDYLIKVADSVDALKGNKKFQDAVEKGTYDAWAMRMSKSFDKAEGVESTPTIKINDKVVETPSTPDAWQKALKDAGVTK | failed
ESTLVNENVLENIPMGIIVVDINCNITSINDYALNIMDKNIESVIGMPVLDIIPTSDTPLVIKTKEKKLGKTQHINKHIVISNCCPIISNNNVIGALCVFQDIS | failed
MTNGKIWLVVKPTVGVPLFLSAAVIASVVIHAAVLTTTTWLPDYYQGSAKVAAE | failed
MNIYSLFVVAIALSLDAFGVALSIGLDSCVKRKNKLLFAISFGFFQFLCTFIGAYSGFLFNTYITYVPQIIGGMIIAFVGAFMIKEGFDNKEEKLLLNFKMYFVLGISVSIDAAVVGFTMFNKISSNYVILGDSVFIGIVTLILSIIAFIISRYLKRIQLVCKYADYIGGIILVIFGLKMMFF | failed
MLIGEIMDLNLKNFLEDREEIIRDAKRKDEKSFKDFKKIVEEIKERENKDKIVCDFTEYNPLHKGHKYALEKGKEHGIFISVLPGPLERSGRGIPYFLNRYIRAEMAIRAGADIVVEGPPMGIMGSGQYMRCLIKMFYSLGAEIIPRGYIPEKTMEKVIDCINKGYHIQVKPYKIICIETGEILGEKLNIDNYVIASMSQMIYKLNREGLKFNPKFVFVKRLEGISGTKIREAIFSGKFEDIKNMLPKTTLSILKELYDNGKLNELILKRFEDRILETANEYDLYEYLPSNVAEILEKKRPFNNIEEIKNSLPYGFSRHFRERILSKLEARIPNETLSKYINNYPAKIKILAVKL | not failed
MALRNVPFRSEVLGWDPDSLADYFKKLNYKDCEKAVKKYHIDGARFLNLTENDIQKFPKLRVPILSKLSQEINKNEERRSIFTRKPQVPRFPEETESHEEDNGGWSSFEEDDYESPNDDQDGEDDGDYESPNEEEEAPVEDDADYEPPPSNDEEALQNSILPAKPFPNSNSMYIDRPPSGKTPQQPPVPPQRPMAALPPPPAGRNHSPLPPPQTNHEEPSRSRNHKTAKLPAPSIDRSTKPPLDRSLAPFDREPFTLGKKPPFSDKPSIPAGRSLGEHLPKIQKPPLPPTTERHERSSPLPGKKPPVPKHGWGPDRRENDEDDVHQRPLPQPALLPMSSNTFPSRSTKPSPMNPLPSSHMPGAFSESNSSFPQSASLPPYFSQGPSNRPPIRAEGRNFPLPLPNKPRPPSPAEEENSLNEEWYVSYITRPEAEAALRKINQDGTFLVRDSSKKTTTNPYVLMVLYKDKVYNIQIRYQKESQVYLLGTGLRGKEDFLSVSDIIDYFRKMPLLLIDGKNRGSRYQCTLTHAAGYP | not failed
